The values that follow come from IntAct's records for PubMed 16571665.

The chains are these.
B1: Protein phosphatase 2C 77 (Arabidopsis thaliana (Mouse-ear cress)), O04719 (parent)
chain: MDEVSPAVAVPFRPFTDPHAGLRGYCNGESRVTLPESSCSGDGAMKDSSFEINTRQDSLTSSSSAMAGVDISAGDEINGSDEFDPRSMNQSEKKVLSRTESRSLFEFKCVPLYGVTSICGRRPEMEDSVSTIPRFLQVSSSSLLDGRVTNGFNPHLSAHFFGVYDGHGGSQVANYCRERMHLALTEEIVKEKPEFCDGDTWQEKWKKALFNSFMRVDSEIETVAHAPETVGSTSVVAVVFPTHIFVANCGDSRAVLCRGKTPLALSVDHKPDRDDEAARIEAAGGKVIRWNGARVFGVLAMSRSIGDRYLKPSVIPDPEVTSVRRVKEDDCLILASDGLWDVMTNEEVCDLARKRILLWHKKNAMAGEALLPAEKRGEGKDPAAMSAAEYLSKMALQKGSKDNISVVVVDLKGIRKFKSKSLN
partner: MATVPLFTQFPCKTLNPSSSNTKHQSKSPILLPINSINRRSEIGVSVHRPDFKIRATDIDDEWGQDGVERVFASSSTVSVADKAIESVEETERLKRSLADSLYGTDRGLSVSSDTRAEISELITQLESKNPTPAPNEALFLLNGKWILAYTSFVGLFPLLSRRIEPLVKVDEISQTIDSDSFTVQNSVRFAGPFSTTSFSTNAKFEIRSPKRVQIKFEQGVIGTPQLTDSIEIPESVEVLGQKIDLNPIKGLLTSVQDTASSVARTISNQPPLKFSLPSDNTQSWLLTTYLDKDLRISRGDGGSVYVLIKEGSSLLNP

In one experiment the parent is B1. As to conditions: with pap1_arath PAP1, O81439.
In the case of MDEVSPAVAVPFRPFTDPHAGLRGYCNGESRVTLPESSCSGDGAMKDSSFEINTRQDSLTSSSSAMAGVDISAGDEINGSDEFDPRSMNQSEKKVLSRTESRSLFEFKCVPLYGVTSICGRRPEMEDSVSTIPRFLQVSSSSLLDGRVTNGFNPHLSAHFFGVYDGHDGSQVANYCRERMHLALTEEIVKEKPEFCDGDTWQEKWKKALFNSFMRVDSEIETVAHAPETVGSTSVVAVVFPTHIFVANCGDSRAVLCRGKTPLALSVDHKPDRDDEAARIEAAGGKVIRWNGARVFGVLAMSRSIGDRYLKPSVIPDPEVTSVRRVKEDDCLILASDGLWDVMTNEEVCDLARKRILLWHKKNAMAGEALLPAEKRGEGKDPAAMSAAEYLSKMALQKGSKDNISVVVVDLKGIRKFKSKSLN [G168D], the “effect of a mutation on the interaction” value is listed as “disrupting interaction strength”.

Another experiment covers variants of B1. To be noted: with pap1_arath PAP1, O81439. The source holds these as a separate data set.
Consider MDEVSPAVAVPFRPFTDPHAGLRGYCNGESRVTLPESSCSGDGAMKDSSFEINTRQDSLTSSSSAMAGVDISAGDEINGSDEFDPRSMNQSEKKVLSRTESRSLFEFKCVPLYGVTSICGRRPEMEDSVSTIPRFLQVSSSSLLDGRVTNGFNPHLSAHFFGVYDGHDGSQVANYCRERMHLALTEEIVKEKPEFCDGDTWQEKWKKALFNSFMRVDSEIETVAHAPETVGSTSVVAVVFPTHIFVANCGDSRAVLCRGKTPLALSVDHKPDRDDEAARIEAAGGKVIRWNGARVFGVLAMSRSIGDRYLKPSVIPDPEVTSVRRVKEDDCLILASDGLWDVMTNEEVCDLARKRILLWHKKNAMAGEALLPAEKRGEGKDPAAMSAAEYLSKMALQKGSKDNISVVVVDLKGIRKFKSKSLN [G168D], for which the “effect of a mutation on the interaction” value was “disrupting interaction”.
